Ki data for one molecule are collected here from article PMC8701324 (2021).

For orientation: Ki means a measure of affinity in units of concentration, obtained from inhibition or displacement. A lower Ki goes with a stronger hold on the target.

This assay has as its target MRG15 MRG domain, amino acids 155-323 (UniProt Q9UBU8-2 155-323). Briefly: FP.

Sequence of MRG15 MRG domain, amino acids 155-323 (Q9UBU8 194-362): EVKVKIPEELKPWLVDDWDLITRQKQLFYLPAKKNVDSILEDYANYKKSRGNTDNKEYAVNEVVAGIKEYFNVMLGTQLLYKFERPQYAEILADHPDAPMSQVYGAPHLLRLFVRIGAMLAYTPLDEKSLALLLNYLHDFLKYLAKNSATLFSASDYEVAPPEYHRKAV

In turn, MLSLKQLLSFLSITDFQLPDEDFGPLKLEKVKSC [6xHis-PALB2^597-630] gave a Ki of 9.8 nM.
